Results published in patent US20080008651A1, “Screening Methods and Transgenic Animals for the Treatment of Beta-Globin Related Disease and Conditions” (THE REGENTS OF THE UNIVERSITY OF MICHIGAN, published 2008).

B1: beta (dsDNA)
DNA 1: TAGGGTTGGCCAATCTACTCCC
DNA 2: GGGAGTAGATTGGCCAACCCTA
B2: mouse TR2 orphan nuclear receptor, Flag-tagged at the amino terminus, wild type (receptor, UniProt Q505F1 1-590, looked up)
chain: MATIEEIAHQIIDQQMGEIVTEQQTGQKIQIVTALDHSTQGKQFILANHEGSTPGKVFLTTPDAAGVNQLFFTSPDLSAPHLQLLTEKSPDQGPNKVFDLCVVCGDKASGRHYGAITCEGCKGFFKRSIRKNLVYSCRGSKDCVINKHHRNRCQYCRLQRCIAFGMKQDSVQCERKPIEVSREKSSNCAASTEKIYIRKDLRSPLAATPTFVTDSETARSAGLLDSGMFVNIHPSGIKTEPAMLMAPDKAESCQGDLSTLASVVTSLANLGKAKDLSHCGGDMPVVQSLRNGDTSFGAFHHDIQTNGDVSRAFDTLAKALTPGESSACQSPEEGMEGSPHLIAGEPSFVEKEGPLLSESHVAFRLTMPSPMPEYLNVHYIGESASRLLFLSMHWALSIPSFQALGQENSISLVKAYWNELFTLGLAQCWQVMNVATILATFVNCLHSSLQQDKMSPERRKSLMEHIFKLQEFCNSMVKLCIDGHEYAYLKAIVLFSPDHPGLENMELIERFQEKAYVEFQDYITRTYPDDTYRLSRLLLRLPALRLMNATITEELFFKGLIGNVRIDSVIPHILKMEPADYNSQIIGHSL
notes: also called wild type TR2; not shown: Flag tag at the amino terminus
B3: epsilon distal DR (dsDNA)
DNA 1: CCCTGAGGACACAGGTCAGCCTTG
DNA 2: CAAGGCTGACCTGTGTCCTCAGGG
B4: epsilon-y distal DR (dsDNA)
DNA 1: CCATGAGGACCACGGGTCAGGCTGA
DNA 2: TCAGCCTGACCCGTGGTCCTCATGG
B5: epsilon proximal DR (dsDNA)
DNA 1: CAGCCTTGACCAATGACTTTTA
DNA 2: TAAAAGTCATTGGTCAAGGCTG
B6: gamma DR (dsDNA)
DNA 1: GCCTTGCCTTGACCAATAGCCTTGACAA
DNA 2: TTGTCAAGGCTATTGGTCAAGGCAAGGC
B7: epsilon-y proximal DR (dsDNA)
DNA 1: TCAGGCTGACCAATGGCTTCAAA
DNA 2: TTTGAAGCCATTGGTCAGCCTGA
B8: beta-major (dsDNA)
DNA 1: TGGTAAGGGCCAATCTGCTCACA
DNA 2: TGTGAGCAGATTGGCCCTTACCA
B9: beta-h1 DR (dsDNA)
DNA 1: CCCAGACTCTCTTGACCAATAGCCTCAGAGTCCT
DNA 2: AGGACTCTGAGGCTATTGGTCAAGAGAGTCTGGG

Experiments:
[1] = target: TR4 coexpressed with dnTR2 dnTR2 chain: three Lys/Arg to Glu in DNA binding domain (Mus musculus) (UniProt P49117+Q505F1); test: EMSA; conditions: TR4 binding diminished by about 80% (TR4 alone = 100%)
[2] = target: TR4 coexpressed with dnTR4 dnTR4 chain: three Lys/Arg to Glu in DNA binding domain (Mus musculus) (UniProt P49117+P49117); test: EMSA; conditions: TR4 binding diminished by about 80% (TR4 alone = 100%)
[3] = target: T1, DRED complex (TR2/TR4 heterodimer DNA-binding core) (Mus musculus, UniProt Q505F1;P49117 Q505F1:1-590,P49117:1-596); test: competition; EMSA competition vs 1.1 nM 32P epsilon distal DR probe; judged too low for functional association; conditions: protein: extract; tags: native, MEL mouse erythroleukemia cell nuclear extract; blunt ended
T1 sequence 1: B2 chain
T1 sequence 2: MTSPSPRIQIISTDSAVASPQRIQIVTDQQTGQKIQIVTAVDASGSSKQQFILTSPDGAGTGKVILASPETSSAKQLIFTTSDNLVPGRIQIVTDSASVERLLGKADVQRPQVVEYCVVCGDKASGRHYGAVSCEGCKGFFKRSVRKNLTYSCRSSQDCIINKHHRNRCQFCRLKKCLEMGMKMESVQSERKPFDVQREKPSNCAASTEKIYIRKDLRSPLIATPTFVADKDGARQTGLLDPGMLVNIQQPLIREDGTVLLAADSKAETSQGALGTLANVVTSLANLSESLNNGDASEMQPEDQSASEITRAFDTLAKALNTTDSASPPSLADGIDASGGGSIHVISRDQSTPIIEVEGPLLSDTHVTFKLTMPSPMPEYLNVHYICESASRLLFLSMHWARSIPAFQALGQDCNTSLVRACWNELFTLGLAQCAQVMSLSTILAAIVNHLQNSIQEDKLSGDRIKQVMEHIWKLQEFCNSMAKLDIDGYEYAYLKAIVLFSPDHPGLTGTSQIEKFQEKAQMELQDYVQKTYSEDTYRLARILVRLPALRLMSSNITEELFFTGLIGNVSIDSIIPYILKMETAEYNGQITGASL
Description: (§1) Electrophoretic Gel Mobility Shift Assay (EMSA). Nuclear extracts preparation, binding reactions, and electrophoresis were performed as described previously (Tanimoto et al., 2000). The following blunt ended oligonucleotides were used as probes or competitors in EMSA (only sense strands are shown): ε distal DR, 5′-[…]-3′ (SEQ ID NO: 19); ε proximal DR, 5′-[…]-3′ (SEQ ID NO: 20); γ DR, 5′-[…]-3′ (SEQ ID NO: 21); β, 5′-[…]-3′ (SEQ ID NO: 22); εy distal DR, 5′-[…]-3′ (SEQ ID NO: 23); εy proximal DR, 5′-[…]-3′ (SEQ ID NO: 24); βh1 DR, 5′-[…]-3′ (SEQ ID NO: 25); β^major, 5′-[…]-3′ (SEQ ID NO: 26).
(§2) Free and bound ³²P-labeled probe was quantified on a PhosphoImager. The competitive binding experiments were then performed using 1.1 nM ³²P-labeled ε distal DR probe and 70 pM to 2 μM of each competitor double-strand oligonucleotide to determine the 50% inhibitory concentration (IC₅₀). The equilibrium dissociation constant (Ki) for each competitor was then determined by the following equation (Cheng and Prusoff, 1973): […]

[4] = target: T2, mouse TR4 orphan nuclear receptor, Flag-tagged at the amino terminus, wild type (mouse, UniProt P49117 1-596); test: EMSA of nuclear extracts of co-transfected 293T cells on the ε distal DR probe; heterodimer inferred
T2 construct: also called wild type TR4; not shown: Flag tag at the amino terminus
T2 sequence (looked up): T1 sequence 2
Description: 20 μg of expression plasmid was mixed with 40 μl of lipofectamine 2000 (Invitrogen) and then added to each dish according to the manufacturer's instruction. Forty-eight hours after transfection, cells were harvested and nuclear extracts were prepared.
as §1
After transfection, nuclear extracts were prepared and examined for binding to the ε distal-DR element by EMSA (FIG. 1C). […] When TR2 and TR4 were coexpressed to generate TR2/TR4 heterodimers (Tanabe et al., 2002), generated an even more intense signal.

[5] = target: T1, DRED complex (TR2/TR4 heterodimer …); test: EMSA; saturation binding, MEL nuclear extract; conditions: protein: extract; tags: native, MEL mouse erythroleukemia cell nuclear extract; label: 32P (probe); blunt ended
Description: as §1, §2

[6] = target: T1, DRED complex (TR2/TR4 heterodimer …); test: competition; EMSA competition vs 1.1 nM 32P epsilon distal DR probe; unlabeled competitor; conditions: protein: extract; tags: native, MEL mouse erythroleukemia cell nuclear extract; label: 32P (probe); blunt ended
Description: as §1, §2

[7] = target: T1, DRED complex (TR2/TR4 heterodimer …); test: competition; EMSA competition vs 1.1 nM 32P epsilon distal DR probe; conditions: protein: extract; tags: native, MEL mouse erythroleukemia cell nuclear extract; blunt ended
Description: as §1, §2

Row | Molecule | Ki [3] [nM] | Ki [7] [nM] | also measured
1 | CCCTGAGGACACAGGTCAGCCTTG (double strand) [epsilon distal DR] | – | – | binding signal [1]: 20%; binding signal [2]: 20%
2 | B1 | 420 | – | –
3 | B2 | – | – | binding result [4]: binds
4 | B3 | – | – | Kd [5]: 0.56 nM; Ki [6]: 0.97 nM
5 | B4 | – | 4.1 | –
6 | B5 | – | 2.8 | –
7 | B6 | – | 13 | –
8 | B7 | 59 | – | –
9 | B8 | 170 | – | –
10 | B9 | – | 18 | –
